Where a chain is given by its changes, count along the chain named.
T1: ITGA2 protein on the surface of human tumor cells (human, UniProt P17301 30-1181)
T1 sequence (looked up): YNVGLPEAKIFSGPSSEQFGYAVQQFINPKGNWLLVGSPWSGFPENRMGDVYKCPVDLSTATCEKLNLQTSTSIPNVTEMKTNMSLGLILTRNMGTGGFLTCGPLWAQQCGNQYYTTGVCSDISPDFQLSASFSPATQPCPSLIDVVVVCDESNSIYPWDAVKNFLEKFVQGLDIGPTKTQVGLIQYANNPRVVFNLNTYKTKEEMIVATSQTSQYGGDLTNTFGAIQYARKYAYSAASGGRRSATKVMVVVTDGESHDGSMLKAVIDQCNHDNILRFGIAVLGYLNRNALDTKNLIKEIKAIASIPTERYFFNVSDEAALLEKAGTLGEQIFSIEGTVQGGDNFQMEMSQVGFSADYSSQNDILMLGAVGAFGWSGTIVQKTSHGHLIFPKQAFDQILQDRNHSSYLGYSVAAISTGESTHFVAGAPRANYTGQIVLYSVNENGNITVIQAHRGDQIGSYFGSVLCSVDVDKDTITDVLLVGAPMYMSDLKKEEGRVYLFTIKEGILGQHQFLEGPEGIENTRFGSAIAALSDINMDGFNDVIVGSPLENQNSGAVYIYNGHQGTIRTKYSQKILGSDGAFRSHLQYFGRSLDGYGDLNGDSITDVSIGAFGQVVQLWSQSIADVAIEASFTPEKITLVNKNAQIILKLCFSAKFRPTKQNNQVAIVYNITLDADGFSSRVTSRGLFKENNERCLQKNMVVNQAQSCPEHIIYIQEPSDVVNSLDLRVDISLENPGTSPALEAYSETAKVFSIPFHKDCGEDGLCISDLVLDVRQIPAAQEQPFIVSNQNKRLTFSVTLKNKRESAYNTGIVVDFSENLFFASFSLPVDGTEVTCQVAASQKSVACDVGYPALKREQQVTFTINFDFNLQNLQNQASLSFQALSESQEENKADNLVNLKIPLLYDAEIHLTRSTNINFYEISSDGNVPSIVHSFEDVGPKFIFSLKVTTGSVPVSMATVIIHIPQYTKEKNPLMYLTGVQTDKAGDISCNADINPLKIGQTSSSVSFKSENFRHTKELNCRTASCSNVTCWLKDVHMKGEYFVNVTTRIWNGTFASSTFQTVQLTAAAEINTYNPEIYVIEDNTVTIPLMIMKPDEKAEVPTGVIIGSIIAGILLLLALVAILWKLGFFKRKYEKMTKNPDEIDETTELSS

T2: ITGA2-His (UniProt P17301 30-1132, limits assumed)
T2 construct: Coated on the ELISA plate at 2 ug/mL; whole entry P17301 is named; also called ITGA2 protein; not shown: His tag
T2 sequence (looked up): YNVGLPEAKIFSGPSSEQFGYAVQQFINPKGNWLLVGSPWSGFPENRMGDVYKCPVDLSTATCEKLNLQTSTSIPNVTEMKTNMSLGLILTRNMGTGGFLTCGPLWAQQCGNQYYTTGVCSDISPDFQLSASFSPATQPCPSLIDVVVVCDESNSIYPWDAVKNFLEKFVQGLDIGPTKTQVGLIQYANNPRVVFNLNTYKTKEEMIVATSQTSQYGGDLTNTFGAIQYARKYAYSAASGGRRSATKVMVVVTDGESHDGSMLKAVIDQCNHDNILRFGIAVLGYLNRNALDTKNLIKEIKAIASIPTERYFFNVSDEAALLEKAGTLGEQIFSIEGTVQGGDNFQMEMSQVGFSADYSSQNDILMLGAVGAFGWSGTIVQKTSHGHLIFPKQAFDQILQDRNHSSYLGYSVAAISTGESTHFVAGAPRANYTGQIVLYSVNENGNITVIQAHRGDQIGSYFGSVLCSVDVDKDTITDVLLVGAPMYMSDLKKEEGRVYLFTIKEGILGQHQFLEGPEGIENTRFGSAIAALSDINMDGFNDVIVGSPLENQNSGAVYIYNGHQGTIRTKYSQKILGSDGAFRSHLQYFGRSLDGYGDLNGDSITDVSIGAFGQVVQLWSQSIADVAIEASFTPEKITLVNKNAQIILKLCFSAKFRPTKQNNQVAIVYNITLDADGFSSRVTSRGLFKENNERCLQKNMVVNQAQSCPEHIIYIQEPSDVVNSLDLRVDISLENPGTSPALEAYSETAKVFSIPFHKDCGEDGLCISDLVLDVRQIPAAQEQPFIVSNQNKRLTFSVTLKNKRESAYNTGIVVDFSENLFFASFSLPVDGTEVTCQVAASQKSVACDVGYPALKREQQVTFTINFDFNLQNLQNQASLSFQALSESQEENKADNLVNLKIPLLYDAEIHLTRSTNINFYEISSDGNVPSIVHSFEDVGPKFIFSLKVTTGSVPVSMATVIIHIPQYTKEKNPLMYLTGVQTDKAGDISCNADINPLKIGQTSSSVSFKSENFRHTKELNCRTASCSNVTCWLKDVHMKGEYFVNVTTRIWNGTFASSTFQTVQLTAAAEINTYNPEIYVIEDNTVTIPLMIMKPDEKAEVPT

B1: FS002-A153-H5L5-vcMMAE (antibody, human IgG1, kappa, V domains shown)
VH: QVQLVQSGAEVKKPGASVKVSCKASGYTFTDYEMHWVRQAPGQGLEWMGTIDPETGGTTYAQKFQGRVTMTADTSISTAYMELSRLRSDDTAVYYCARSGYYVSSYESYAMDYWGQGTTVTVSS
VL: EIVMTQSPPTLSLSPGERVTMSCRSSQSLLNSGNQKNYLTWYQQKPGQAPRLLIYGASTRESGVPARFSGSGSGTDFTLTISSLQPEDFAVYYCQNDYSYPFTFGGGTKLEIKR
modifications: vc-MMAE, attachment residues not stated; vc-MMAE (mc-vc-PAB-MMAE) conjugated after TCEP reduction, DAR 4.0 per antibody; attachment residues not stated
B2: FS002-A208-H4L4-vcMMAE (antibody, human IgG1, kappa, V domains shown)
VH: B1 VH with M34I, M48I, T50A, T59N, A61N, M70L, A97S, S105N
VL: DIQMTQSPSSLSASVGDRVTITCRASQNVGTNVAWYQQKPEKAPKSLIYSASYRFSGVPSRFSGSGSGTDFTLTISSLQPEDFATYYCQQYNIYPLSFGGGTKLELKR
modifications: vc-MMAE, attachment residues not stated; vc-MMAE (mc-vc-PAB-MMAE) conjugated after TCEP reduction, DAR 4.1 per antibody; attachment residues not stated
B3: FS002-A103-H4L4-vcMMAE (antibody, human IgG1, kappa, V domains shown)
VH: B1 VH with T50V, A61N, M70L, A97S
VL: EIVMTQSPPTLSLSPGERVTLSCRASENVGTYVSWYQQKPGQAPRLLIYGASTRESGIPARFSGSGSGTDFTLTISSLQPEDFAVYYCQNDYSYPFTFGGGTKLEIKR
modifications: vc-MMAE, attachment residues not stated; vc-MMAE (mc-vc-PAB-MMAE) conjugated after TCEP reduction, DAR 3.7 per antibody; attachment residues not stated
B4: FS002-A208-H5L4-vcMMAE (antibody, human IgG1, kappa, V domains shown)
VH: B1 VH with M34I, T50A, T59N, A97S, S105N
VL: B2 VL
modifications: vc-MMAE, attachment residues not stated; vc-MMAE (mc-vc-PAB-MMAE) conjugated after TCEP reduction, DAR 4.0 per antibody; attachment residues not stated
B5: FS002-A103-H4L2-vcMMAE (antibody, human IgG1, kappa, V domains shown)
VH: B1 VH with T50V, A61N, M70L, A97S
VL: B3 VL with P9K, L11M, L13M, R24K, I58V, A60D
modifications: vc-MMAE, attachment residues not stated; vc-MMAE (mc-vc-PAB-MMAE) conjugated after TCEP reduction, DAR 3.5 per antibody; attachment residues not stated
B6: FS002-A153-H4L2-vcMMAE (antibody, human IgG1, kappa, V domains shown)
VH: B1 VH with M70L, A97S
VL: DIVMTQSPDSLAVSLGERVTMNCKSSQSLLNSGNQKNYLTWYQQKPGQPPKLLIYGASTRESGVPDRFSGSGSGTDFTLTISSLQAEDVAVYYCQNDYSYPFTFGGGTKLEIKR
modifications: vc-MMAE, attachment residues not stated; vc-MMAE (mc-vc-PAB-MMAE) conjugated after TCEP reduction, DAR 3.8 per antibody; attachment residues not stated
B7: FS002-A153-H5L2-vcMMAE (antibody, human IgG1, kappa, V domains shown)
VH: B1 VH
VL: B6 VL
modifications: vc-MMAE, attachment residues not stated; vc-MMAE (mc-vc-PAB-MMAE) conjugated after TCEP reduction, DAR 3.5 per antibody; attachment residues not stated
B8: FS002-A103-H4L3-vcMMAE (antibody, human IgG1, kappa, V domains shown)
VH: B1 VH with T50V, A61N, M70L, A97S
VL: B3 VL with L11M, L13M, R24K, I58V
modifications: vc-MMAE, attachment residues not stated; vc-MMAE (mc-vc-PAB-MMAE) conjugated after TCEP reduction, DAR 3.5 per antibody; attachment residues not stated
B9: FS002-A153-H5L1-vcMMAE (antibody, human IgG1, kappa, V domains shown)
VH: B1 VH
VL: B6 VL with N22S, S69T
modifications: vc-MMAE, attachment residues not stated; vc-MMAE (mc-vc-PAB-MMAE) conjugated after TCEP reduction, DAR 3.7 per antibody; attachment residues not stated
B10: FS002-A226-H5L4-vcMMAE (antibody, human IgG1, kappa, V domains shown)
VH: B1 VH with M34I, T50A, T59N, A97S, S105N
VL: DIQLTQSPSSLSASVGDRVTITCRASQDIKSYLSWYQQKPGKAPKLLIYDTSNLASGVPSRFSGSGSGTDFTLTISSLQPEDFATYYCQQWSSYPFTFGGGTKLEIKR
modifications: vc-MMAE, attachment residues not stated; vc-MMAE (mc-vc-PAB-MMAE) conjugated after TCEP reduction, DAR 3.8 per antibody; attachment residues not stated
B11: FS002-A153-H3L3-vcMMAE (antibody, human IgG1, kappa, V domains shown)
VH: B1 VH with V20L, M48I, A61N, M70L, A97S
VL: B6 VL with V19A, M21I
modifications: vc-MMAE, attachment residues not stated; vc-MMAE (mc-vc-PAB-MMAE) conjugated after TCEP reduction, DAR 3.8 per antibody; attachment residues not stated
B12: Humanized antibody FS002-A103-H4L4 (antibody, human IgG1, kappa, V domains shown)
VH: B1 VH with T50V, A61N, M70L, A97S
VL: B3 VL
notes: Humanized IgG1 kappa
B13: Vatelizumab-vc-MMAE: Antibody-drug conjugate of the positive control antibody Vatelizumab with vc-MMAE linker-payload (conjugate, chains of the INN, looked up)
VH: QVQLQESGPGLVKPSETLSLTCTVSGFSLTNYGIHWIRQPPGKGLEWLGVIWARGFTNYNSALMSRLTISKDNSKNQVSLKLSSVTAADTAVYYCARANDGVYYAMDYWGQGTLVTVSS
VL: DFVMTQSPAFLSVTPGEKVTITCSAQSSVNYIHWYQQKPDQAPKKLIYDTSKLASGVPSRFSGSGSGTDYTFTISSLEAEDAATYYCQQWTTNPLTFGQGTKVEIK
modifications: vc-MMAE linker-payload
B14: FS002-A226-H3L4-vcMMAE (antibody, human IgG1, kappa, V domains shown)
VH: QLQLVQSGAEVKKPGASVKVSCKASGYTFTDYEIHWVRQAPGQGLEWIGAIDPETGGTNYNQKFNDRVTLTADTSISTAYMELSRLRSDDTAVYYCSRSGYYVSNYESYAMDYWGQGTTVTVSS
VL: B10 VL
modifications: vc-MMAE, attachment residues not stated; vc-MMAE (mc-vc-PAB-MMAE) conjugated after TCEP reduction, DAR 3.8 per antibody; attachment residues not stated

How the values were obtained:
[1] = target: ITGA2 protein on the surface of human tumor cells (human) (UniProt P17301); assay: cell-based or functional assay
[2] = target: T1, ITGA2 protein on the surface of human …; assay: cell-based or functional assay
ITGA2-His = target: T2, ITGA2-His; assay: ELISA, plate coated with 2 ug/mL ITGA2-His, anti-human IgG-Fc-HRP detection
[3] = target: T1, ITGA2 protein on the surface of human …; assay: flow cytometry on HuCCT1 cells
[4] = test system: Human epidermal cancer cells A431; assay: ADC cancer cell killing assay (Cell-Titer-Glo 2.0); format: cell-based; details: 5 days at 37°C, 3-fold gradient, 11 points
Protocol: Human epidermal cancer cells A431 available from Procell Life Science&Technology Co.,Ltd. (Wuhan) were seeded into a 96-well plate at 2500 cells/well. It was then incubated in a 5% CO2 incubator overnight at 37°C. Half of the medium was removed from the cell plate on the next day. A 2x hIgG1-vcMMAE (negative control ADC, provided by ChemPartner), a control antibody and the ADC prepared as the above were prepared with a complete culture medium, and then diluted at a 3-fold gradient with 11 specific concentration points in total. Serial dilutions of the above molecules were added to the appropriate wells, and it was then incubated in a 5% CO2 incubator for 5 days at 37°C. After the incubation, 100 uL of Cell-Titer-Glo 2.0 reagent was added to the 96-well plate. It was then well mixed on a plate shaker for 2 minutes, and finally equilibrated at room temperature for 10 minutes. Readings were taken using a microplate reader. Finally, IC50 was used to compare the biological activity of the ADC against each cell line.

Molecule	A431 cell killing IC50 [2] [pM]	also measured
Vatelizumab-vc-MMAE (antibody)	–	A431 cell killing IC50 [1]: 54 pM
B1	73	–
B2	51	–
B3	52	–
B4	83	–
B5	61	–
B6	57	–
B7	28	–
B8	70	–
B9	82	–
B10	49	–
B11	88	–
B12	–	EC50 (ITGA2-His): 10 pM; EC50 [3]: 300 pM
B13	–	IC50 [4]: 54 pM; IC50 ([4]; listed as Vatelizumab-ve-MMAE): < 100 pM
B14	63	–
